Results published in the nanobody polyreactivity screen of Harvey et al. (2022).

Test: yeast display, Sf9 membrane polyspecificity reagent, FACS + sequencing; frameworks hold sequencing errors
Outline: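 A nanobody's polyreactivity label depends on the gate it was sorted from. Yeast display cells were stained with 10% biotinylated, detergent-solubilized Sf9 membrane reagent for 1 hour at 4 °C, enriched on streptavidin microbeads and sorted by FACS. The low and high (top ~1%) gates were set on anti-HA fluorescence for expression and streptavidin fluorescence for reagent binding.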

| Sequence | polyreactivity (PSR sort gate) |
| --- | --- |
| QVQLVESGGGLVQAGGSLRLSCAASGIIFGRNAMGWYRPAPGKERELVAVITGGGGRTYYADSVKGRFTISRDNAKKTVYLQMNSLKPEDTAVYYCNKDYRRNLAYFKEPGVPVDYWGQGTQVTVSS | low polyreactivity |
| QVQLVESGGGLVQAGGSLRLSCAASGRIPAYAMGWYRQAPWKERELVAAITWSGGSTYYADSVKGRFTISRDNAKNTVYLQMISLKPEDTSVDYCAAKQWGRYGYWGKGTQVTVSS | high polyreactivity |
| QVQLVESGRGLVQAGGSLRLSCAASGRSFAVYAMAWYRPAPGKVMELVAAISSGGSTYYADSVKGRFTSSRDNAKNTVYVQMNSLKPEDSSVSYCAAGWKRLSGRKHYYWGQGTQVTVSS | high polyreactivity |
| QVQLVESGGRLVQAGGSLRLSCAASGSNSFRYAIGWDRQAPGKERELVARISSGGSTNYADSVKGRFTISRDNAKNTVYLQMNRLKPEDTAVYYCAKSFRYSVYPYSHYDYWGQGTQVTVSS | high polyreactivity |
| QVQLVESGGGLVQAGGSLRLSCAASGITFRWYAMGWYRQAPGKERELVASISSGGITTYADSVKGRFTISRDNAKNTVYLQMNSLKPEDTAVDYCNAVGHTSIRRALDILDYWGQGTQVTVSS | high polyreactivity |
| QVQLVESGGGLVQAGGSLRLSCAASGNTFYGYAMGWYRQAPGKERELVASITLSGDSTYYADSVKGRFTISRDNAKNTVYLQMNSLKPEDTAVYDCAGVYTYPLGYYHYTYDYWGQGTQVTVSS | low polyreactivity |
| QVQLVESGGGLVQAGGSLRLSCAASGFTFDIYAMGWYRQAPGTERELVATISFTGDTTSYADSVKGRFTISRDNAKTTVYLQMNSLKPEDTAVYYCAADGSYPLSVGRENLHYAEFDYWGQGTQVTVSS | low polyreactivity |
| QVQLVESGGGLVQAGGSLRLSCAASGLTFYYYAMGWYRQAPGKEREFVAAISYRGGRTYYADSVKGRFTISRDNAKNTVYLQMNSLKPEDTAVYYCAKLGKSRWWGVGPLEMDSWGQGTQVTVSS | high polyreactivity |
| QVQLVESVGGLVQAGGSLRLSCAASGITFTVYAMGWYRQAPGKERELVAAISSSGSTTYADSVKGRFTISRDNAKNTVYLQMNSLKPEDTAVYYCAAYSDYYLDQWYGYWGQGTQVTVSS | low polyreactivity |
| QVQLVESGGGLVQAGGSLRLSCAASGSIFDYNAMGWYRQAPGKERELVAAITSGTSTNYADSVKGRFTISRDNAKNTVYLQMNSLKPEDTAVYYCAADPVWAYDYWGQGTQVTVSS | low polyreactivity |
| QVQHVESGGGLVQAGGSLRLSCAASGSISPQNVMGWYRQAPGKERELVAAITGGGYTNYADSVKGRFTISRDNANNTVYLQMNSLKPEDTAVYYCNADYFQDRLDYWGQGTQVTVSS | low polyreactivity |
| QVQLVESGGGLVQAGGSLRLSCAASGSTFGTYAMGWYRKAPGKERELVAAISTGGSTYYADSVKGRFTISRDNAKNTVYLQMNSLKPEDTAVYYCAALADYVRRASEYWGQGTQVTVSS | high polyreactivity |
| QVQLVESGGGLVQAGGSLRLSCAASGRIFRLYTMGWYRQAPGKERELVAAISSAGSTKYADSVKGRFTISRDNAKNTVYLQMNSLKPEDTAVYYCAAGRYYYRSGFYTPVRYYSWGQGTQVTVSS | high polyreactivity |
| QVQLVESGGRLVQAGGSLRLICAASGFIFWYYAMGWYRQAPGKERELVADISSGGSTNYADSVKGRFTISRDNAKNTVYLQMNSLKPEDTAVYYCAADTFRRDDYWGQGTQVTVSS | low polyreactivity |
| QVQLVESGGGLVQAGGSLRLSCAASGITFDLYDMGWYRQAPGKERELVAAITDADSTYYADSVKGRFTISRDNAKNTVYLQMNSLKPADTAVYYCAADFFYSVYSGHYDYWGQGTQVTVSS | low polyreactivity |
| QVQLVESGGGLVQAGGSLRLSCAASGFTFDENAMGWSRQAPGINYSRASTYYADSVKGRFTISRDNAKNTVYLQMISLKPEDTAVYYCNKASYWGSGFDYWGQGTQVTVSS | low polyreactivity |
| QVQLVESGGGIVQAGGSLRLSCAAAGFTFWQYAMGWYRQAPGKERELVAAITWDGGSTYYADSVKGRFTISRDYAKNTVYLQMNSLKPEDTAVYYCAKLFGGTYYEYDYWGQGTQVTVSS | low polyreactivity |
| QVQLEESGGGLVQAGGSLRLICAASGSIFYYKYAMGGYRQAPGKERELVAAITSTGGTTYYADSVKGRFTISRDNAKNTVYLQMNSLKPEDTAVYYCAALAPYIGGVDYDYWGQGTQVTVSS | low polyreactivity |
| QVQLVESGGGLVQAGGSLRLSCAASGITFSFYAMGWYRQAPGKERELVAGLTRSGGDTYYADSVKGRFTISRDNAKNTVYLQMNSLKPEDTAVYYCAAAWFFYRRQYTFFAGRMDYWGQGTQVTVSS | high polyreactivity |
| QVQLVESGGGLVQAGGSLRLSCAASGSIFSDYAMGWYRQAPGKERELVAAISGTGGGTYYADSVKGRFTISRDNAKNTVYLQMNSLKPEDTAVYYCAADYVFAWWGDYYWGQGTQVTVSS | high polyreactivity |

| Sequence | polyreactivity (PSR sort gate) |
| --- | --- |
| QVQLVESGGGLVQAGGSLRLSCAASGSIFGLNAMGWYRQAPGKERELVAASSVSGTRTYYADSVKGRFTISRDNAKNTGYVQMNSLKPEDTAVYYCATRRYIFYSPYRYGYWGQGTHVTVSS | high polyreactivity |
| QGQLEDSGGGLVQAGGSLRLSCAASGFSFRSYGMGRYRQAPGKERELVAVISRSGGNTYYAASVKGRFTISRHNAKNTVYLQMHSLKPEDTAVYYCAATLVGTVIRRFDDWGQGTQVTVSS | high polyreactivity |
| QVQLVESGGGLVQAGGSLRLRCAASGFIFARYAMGWYRQAPGKERELVASITCRGTSTRYADSVKGRFTISRDNAKNTVYLEMNSLKPEDTAVYYCNAARLSYSWVPSEMDFWGQGTQVTVSS | high polyreactivity |
| QVQLVESGGGLVQAGGSLRLSCAASGRTFSKYTMGWYRQATGKERELVAAIDRSGGSTYYADSVKGRFTISRDNAKNTVYLQMNSLKPEDTAVYYCAAVYYLVPGNYWGHGTQVTVSS | high polyreactivity |
| QVQLVESGGGLVQAGGSLRLSCAASGRIFRRYAMGWYRQAPGKERELVAAITSGGSTYADSVKGRFTISRDNAKNTVYLQMNSLKPEDTAVYYCAADDAQGFDYWGQGTQVTVSS | high polyreactivity |
| QVQLVESGGGLVQAGRSLRLSCAASGSTLLWNAMGWYRQAPGKERELVAVISWSGGSTYYGDSVKGRFTISRDNAKNTVYLQMNSLKPEDTAVYYCAHDYDGYVWDTEYDYWGQGTQVTVSS | low polyreactivity |
| QVQLVESGGGLVQAGGSLRLSCAASGSTFGRYAMGWYRQAPGKERELVAAITRSGGRTYYADSLKGRFTISRDNAKNTVYLQMNSLKPEDTAVYYCAAVGNLYYTSHWQYDYWGQGTQVTVSS | high polyreactivity |
| QVQLVESGVGLVQAGGSLRLSCAASGSIFDINAMGWYRQAPGKERELVAVITDSGSTYYADSVKGRFTISRDNAKNTVYLQMNSLKPEDTAVYYCAAESSLLFFLMDYWGQGTQVTVSS | low polyreactivity |
| QVQLVESGGGLVQAGGSLRLTCAASGSIFRRNAMGWYRQAPGKERELVAAISWSGGDTYYADSVKGRFTISRDNAKNTVYLQMNSLKPEDTAVYYCAAEYYRPYYGESYDYWGQGTQVTVSS | high polyreactivity |
| QVQLVESGGGLVQAGGSLRLSCAASGSTFATYAMVWYRQAPGKERELVAAITSGGSTYYADSVKGRFTISRDNAKNTVYLQMNSLKPEDTAVYYCAARSYGWRRATYYKREEYWGQGTQVTVSS | high polyreactivity |
| QVQLVESGAGLVQAGGSLRLSCAASGPILRTYAKGWYRQAPGKERELVAAISRSGGSSYYADSVKGRFTLSRDNAKNTVYLLMNSLKPEDTAVYYCNKAYGGRGYKYEYWGQGSQVTVSS | high polyreactivity |
| QVQLVESGGGLVQAGGRLRLSCAASGSICEPYVMGWYIQAPGKERELVAAIRQTGGSTYYADSVKGRFTISRDNAKNTVYLQMNSLKPEDTAVYYCNAEQKPSGLYDYRGVEGEMGYWGQGTQVTVSS | low polyreactivity |
| QVQLVESGGGLVQAGGSLRLSCAASGSIFGGYAMGWYRPAPGKERELVAAISKTGGTTYYADSVKGRFTISRDNAKNTVYLQMKSLKPEDTAVYYCNAPKRYSGSAYGYGYWGQGTQVTVSS | high polyreactivity |
| QVQLVESGGGLVHAGGSLRLSCAASGYTFQAYAMGWYRQPPGKERELVAAISFSSGSTYYADSVKGRFTISRDNAKNTVYLQMNSLKPEDTAVYDCATDNWSVNGGYNYWGQGTQVTVSS | low polyreactivity |
| QVQLVESGGGLVQAGGSLRLSCAASGRTFKDYVMGWYRQAPGKERELVAAITWRGGRTYYADSVKGRFTISRDNAKNTVYLQMNSLKPEDTAVYYCAAAEYFVSGGIMDYWGQGTQVTVSS | high polyreactivity |
| QVKLVESGGGLVQAGGSLRLSCAASGSTFPTNAMVCYRQAPGKERELVAGITEGGSSTYYADSVKGRFTISRDNAKNTVYLQMNSLKPEVTAVYYCAADVLWYGPFWVRQDDYWGQGTQVTVSS | high polyreactivity |
| QVQLVESGGGLVQAGGSLRLSCAASGRTFTGNAMGWYRQAPGKVRELVADINLSGGDTYYADSVKGRFTISRDNAKNTVYLQMNSLKPEDTAVYYCAADIVYSSDYGPGDYWGQGTQVTVSS | high polyreactivity |
| QVQLVESGGGFVQAGGSLRLSCAASGCTFIKYAMGWYTQAPGKEREFVAAITRSGTSTYYADSVKGRFTISRDNAKNTVYLQMNRLKPEDTAVYFCSARYVYNSDRVSERDYWGQGTQVTVSS | high polyreactivity |
| QVQLVESGGGLVQAGGSLRLSCAASGSIYYAMGWYRQAPGKESEFVAAINSGGSTYYADSVKGRFTISRDNAKNTVYLQMNSLKPEDTAVYYCAKPTYRFYWGDFDYWGQGTQVTVSS | low polyreactivity |
| QVQLVESGGGLVQAGGSLRLSCAASGIIFGFYAMGWYRQAPGKERELVAAITSGGRTDYADSVKGRFTISRDNAKNTVYLQMNSLKPEDTAVYYCAAEFTYYGARWGYLGDLDYWGQGTQVTVSS | high polyreactivity |
